This note sets out measurements from patent US20260274986A1, “USE OF CHIMERA IN TARGETED PROTEIN DEGRADATION TECHNOLOGY” (SUN YAT-SEN UNIVERSITY, priority 2023, published 2026).

The target of one assay is T1, EGFR (Homo sapiens, UniProt P00533).
T1 construct: two EGFR-high-expressing cell lines-A431, and A549-were selected for the experiment; endogenous in cells; host or cells: A431, A549
Put plainly: Chimera-induced degradation of EGFR, Western blot. In kind it is cell-based. The conditions noted are these: 48 hours. As to the method:
In this Example, two EGFR-high-expressing cell lines-A431, and A549-were selected for the experiment. The cells were plated one day before the administration of chimeras. […] Subsequently, the cells were lysed using a lysis buffer, total proteins were extracted, and protein concentration was quantified using a BCA protein assay kit (Thermo Fisher). Proteins were separated by 10% SDS-PAGE and transferred onto polyvinylidene fluoride (PVDF) membranes via electroblotting. The membranes were blocked with 5% skim milk at room temperature for 1 hour. After removing the milk, the membranes were incubated with a primary antibody overnight at 4° C. on a shaker. The next day, the membranes were quickly immersed in TBST and washed three times, followed by incubation with a secondary antibody at room temperature for 1 hour. Finally, the proteins were detected and recorded using a chemiluminescence reagent and a Tanon chemiluminescence imaging system, and quantitative analysis was performed on the proteins using ImageJ. All primary antibodies used in this Example were an anti-EGFR antibody.
On the technique in general: Immunoblotting shows a protein as a band on a membrane.

Another assay concerns the target T2, CDK5 (Homo sapiens, UniProt Q00535).
T2 construct: a CDK5-high-expressing cell line—T24 human bladder cancer cells—was selected for the experiment; endogenous in cells; host or cells: T24
Put plainly: Chimera-induced degradation of intracellular target CDK5, Western blot. In kind it is cell-based. The settings on record: T24 cells; 48 hours; compared to PEP2 and P1. Here is the method: In this Example, a CDK5-high-expressing cell line—T24 human bladder cancer cells—was selected for the experiment. The cells were plated one day before the administration of chimeras. Each of PEP2, P1 and PEP-C4-P1 was diluted in complete medium and incubated with the cells for 48 hours. Subsequently, the cells were lysed using a lysis buffer, total proteins were extracted, and protein concentration was quantified using a BCA protein assay kit (Thermo Fisher). Proteins were separated by 10% SDS-PAGE and transferred onto polyvinylidene fluoride (PVDF) membranes via electroblotting. The membranes carrying the proteins were blocked with 5% skim milk at room temperature for 1 hour. After removing the milk, the membranes were incubated with a primary antibody overnight at 4° C. on a shaker. The next day, the membranes were quickly immersed in TBST and washed three times, followed by incubation with a secondary antibody at room temperature for 1 hour. Finally, the proteins were detected and recorded using a chemiluminescence reagent and a Tanon chemiluminescence imaging system, and quantitative analysis was performed on the proteins using ImageJ. All primary antibodies used in this Example were an anti-CDK5 antibody.

T2 sequence (Q00535 whole entry): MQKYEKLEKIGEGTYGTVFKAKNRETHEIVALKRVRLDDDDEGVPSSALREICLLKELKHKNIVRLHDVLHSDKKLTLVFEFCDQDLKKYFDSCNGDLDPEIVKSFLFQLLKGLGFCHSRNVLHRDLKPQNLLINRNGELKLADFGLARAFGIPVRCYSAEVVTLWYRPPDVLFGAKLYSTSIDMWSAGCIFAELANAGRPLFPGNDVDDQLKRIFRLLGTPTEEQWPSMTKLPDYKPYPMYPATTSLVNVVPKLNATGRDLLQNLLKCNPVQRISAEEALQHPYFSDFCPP

“PEP1-C3-P1: EGFR-binding polypeptide PEP1 (LARLLT) fused at C-terminus to C3-P1, SEQ ID NO: 135 (LARLLTRRRRKSFHDDSDEDLLHI)”: the “degradation of EGFR (Western blot, FIG. 6C)” value with EGFR (A431 cells) and in the assay with EGFR (A549 cells) was “obvious degradation effect on the membrane receptor EGFR” throughout.

Regarding “PEP1-P1: EGFR-binding polypeptide PEP1 (LARLLT) fused at C-terminus to P1, SEQ ID NO: 134 (LARLLTSFHDDSDEDLLHI)”, the “degradation of EGFR (Western blot, FIG. 6C)” value with EGFR (A431 cells) and with EGFR (A549 cells) was “obvious degradation effect on the membrane receptor EGFR” in each case.

For “PEP2-C4-P1: CDK5-binding polypeptide PEP2 (RRPPRSPDHKRYFRDKE) fused at C-terminus to C4-P1, SEQ ID NO: 136 (RRPPRSPDHKRYFRDKEYGRKKRRQRRRSFHDDSDEDLLHI)”, in the assay with CDK5, the “degradation of CDK5 (Western blot, FIG. 15)” value is listed as “obvious degradation effect on CDK5”.
